Paper PMC4686660, “MLLT1 YEATS domain mutations in clinically distinctive Favourable Histology Wilms tumours” (Nature Communications, 2015)

T1: wild-type MLLT1 YEATS domain polypeptide (residues 1-138 of human MLLT1) (human, UniProt Q03111 1-138)
T1 construct: MLLT1 (ENL), human, YEATS domain, residues 1-138; codon-optimized DNA in pET28 with a thrombin cleavage site between the 6His tag and the protein; also called ENL; YEATS1; source: E. coli BL21(pLysS), purified (Ni-NTA sepharose, size exclusion chromatography)
T1 sequence (looked up): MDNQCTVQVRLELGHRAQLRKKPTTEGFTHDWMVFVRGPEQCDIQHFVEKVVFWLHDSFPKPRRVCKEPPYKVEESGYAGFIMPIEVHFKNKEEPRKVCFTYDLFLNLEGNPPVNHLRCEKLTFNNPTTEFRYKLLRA

T2: MLLT1 YEATS domain polypeptide p.112_114PPV>L (human, UniProt Q03111 1-138, p.112_114PPV>L)
T2 construct: Somatic mutation found in tumours; source: E. coli BL21(pLysS), purified (Ni-NTA sepharose, size exclusion chromatography)
T2 sequence (looked up): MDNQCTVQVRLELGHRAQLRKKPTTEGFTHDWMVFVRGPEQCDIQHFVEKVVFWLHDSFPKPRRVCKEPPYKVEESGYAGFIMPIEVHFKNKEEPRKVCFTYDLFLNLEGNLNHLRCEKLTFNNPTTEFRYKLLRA


Key:
Test in all cases: ITC; YEATS domain in the measurement cell (90-130 uM), histone peptides in the injection syringe (1.2 mM); 50 mM Hepes pH 7.4, 300 mM NaCl, 5 mM beta-mercaptoethanol, 25 °C; MicroCal ITC200 and TA Nano microcalorimeters; triplicate
[1] = target: wild-type MLLT1 YEATS domain polypeptide (residues 1-138 of human MLLT1) (human) (UniProt Q03111)
[2] = target: MLLT1 YEATS domain polypeptide p.111_113NPP>K (human) (UniProt Q03111)
[3] = target: T1, wild-type MLLT1 YEATS domain …; details: both partners purified
[4] = target: T2, MLLT1 YEATS domain polypeptide …; details: both partners purified

| Kd [1] | Kd [2] | Kd [3] | Kd [4] | Molecule |
| --- | --- | --- | --- | --- |
| 140 µM | 330 µM | – | – | H3K27ac histone H3 tail peptide |
| – | – | 60 µM | 107 µM | ARTKQTARKST (acetyl-lysine at K9) [H3K9ac histone H3 tail peptide] |
